The text below walks through data of publication PMC7515732 (Nucleic Acids Research, 2020).

One data set deals with T1, RXRA ΔAB;RARA ΔABF (Mus musculus;Mus musculus, UniProt P28700;P11416 135-467;84-421, |).
T1 sequence 1: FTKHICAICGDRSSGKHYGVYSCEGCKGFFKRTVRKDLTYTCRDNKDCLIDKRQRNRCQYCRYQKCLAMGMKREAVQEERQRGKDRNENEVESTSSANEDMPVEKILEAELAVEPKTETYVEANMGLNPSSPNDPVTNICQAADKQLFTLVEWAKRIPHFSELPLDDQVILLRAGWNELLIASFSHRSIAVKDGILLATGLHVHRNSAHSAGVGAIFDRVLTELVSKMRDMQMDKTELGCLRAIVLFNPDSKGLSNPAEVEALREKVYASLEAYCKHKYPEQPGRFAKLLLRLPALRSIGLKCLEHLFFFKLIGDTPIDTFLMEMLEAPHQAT
T1 sequence 2: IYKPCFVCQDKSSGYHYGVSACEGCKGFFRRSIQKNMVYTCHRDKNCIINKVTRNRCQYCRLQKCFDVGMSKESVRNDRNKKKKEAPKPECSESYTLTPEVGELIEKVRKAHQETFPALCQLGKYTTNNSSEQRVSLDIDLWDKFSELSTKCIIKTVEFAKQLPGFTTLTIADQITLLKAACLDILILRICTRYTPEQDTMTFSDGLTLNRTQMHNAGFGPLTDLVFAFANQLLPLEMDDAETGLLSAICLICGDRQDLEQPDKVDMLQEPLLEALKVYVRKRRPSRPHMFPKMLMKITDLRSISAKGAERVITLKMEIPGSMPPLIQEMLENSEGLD
The data set can be described thus: SEC-SAXS/RALLS.

The target in data set [1] is T2, RXRA ΔAB;RARA ΔAB (Mus musculus;Mus musculus, UniProt P28700;P11416 135-467;84-462, |).
T2 sequence 1: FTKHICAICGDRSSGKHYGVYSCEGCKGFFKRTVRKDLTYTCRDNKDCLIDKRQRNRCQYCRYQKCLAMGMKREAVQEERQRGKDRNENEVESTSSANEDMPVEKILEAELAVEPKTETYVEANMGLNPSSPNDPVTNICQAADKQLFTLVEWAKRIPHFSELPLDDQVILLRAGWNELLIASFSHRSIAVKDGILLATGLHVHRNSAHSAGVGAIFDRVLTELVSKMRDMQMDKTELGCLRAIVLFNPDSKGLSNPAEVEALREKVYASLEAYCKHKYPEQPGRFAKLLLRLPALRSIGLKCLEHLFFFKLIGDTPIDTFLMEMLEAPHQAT
T2 sequence 2: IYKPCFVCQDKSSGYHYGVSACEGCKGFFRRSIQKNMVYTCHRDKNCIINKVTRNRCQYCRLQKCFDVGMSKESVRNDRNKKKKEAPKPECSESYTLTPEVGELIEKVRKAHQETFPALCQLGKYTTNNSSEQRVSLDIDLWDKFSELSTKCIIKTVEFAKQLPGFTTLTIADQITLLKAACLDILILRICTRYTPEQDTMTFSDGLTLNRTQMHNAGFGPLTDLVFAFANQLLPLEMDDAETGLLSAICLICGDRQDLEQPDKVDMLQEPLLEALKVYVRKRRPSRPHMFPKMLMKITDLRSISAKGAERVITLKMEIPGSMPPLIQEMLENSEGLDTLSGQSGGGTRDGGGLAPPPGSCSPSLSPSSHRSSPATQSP
Kind of data set: FRET titration.

In data set [2] the target is T2, RXRA ΔAB;RARA ΔAB. The data set can be described thus: HDX-MS.
The next data set has as its target RXRA DBD;RARA DBD (Homo sapiens;Homo sapiens, UniProt P19793;P10276 130-212;82-167, |). The data set can be described thus: X-ray crystallography.
The next data set concerns the target T3, HsRARA DBD (82–167) (human, UniProt P10276 82-167).
T3 sequence (looked up): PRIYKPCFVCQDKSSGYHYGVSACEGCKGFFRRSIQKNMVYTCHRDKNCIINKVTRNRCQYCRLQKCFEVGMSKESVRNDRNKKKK
Kind of data set: crystal structure.

Another data set has as its target RXRA DBD (Homo sapiens, UniProt P19793 130-212). The data set can be described thus: X-ray crystallography.

B1: F11r DR5 (dsDNA)
DNA 1: AGGGGTCAAGCCAGGTTCACT
DNA 2: AGTGAACCTGGCTTGACCCCT
Turning to B1, the binding result in the data set with RXRA ΔAB;RARA ΔABF was “binds”.

B2: Socs3 DR0 (dsDNA)
DNA 1: AGGGGTCAAGGTCAAA
DNA 2: TTTGACCTTGACCCCT
In turn, B2 came in with a Kd with RXRA ΔAB;RARA ΔAB [1] of 2700 nM.

B3: Rarb2 DR5 TAMRA (dsDNA)
DNA 1: AGGGTTCACCGAAAGTTCACT
DNA 2: AGTGAACTTTCGGTGAACCCT
In the data set with RXRA ΔAB;RARA ΔAB [1], B3 displayed a Kd of 800 nM.

B4: Ramp2 DR1 (dsDNA)
DNA 1: TGAGTTCAAGGGTCAAT
DNA 2: ATTGACCCTTGAACTCA
The molecule B4 had a Kd with RXRA ΔAB;RARA ΔAB [1] of 500 nM.

B5: Hoxb13 DR0 unlabelled (SAXS, HDX) (dsDNA)
DNA 1: GAAGGTCAAGGCCAAG
DNA 2: CTTGGCCTTGACCTTC
As to B5, the binding result with RXRA ΔAB;RARA ΔABF and with RXRA ΔAB;RARA ΔAB [2] was “binds” in each case.

B6: Rarb2 DR5 (crystal) (dsDNA)
DNA 1: AGGGTTCACCGAAAGTTCACT
DNA 2: AGTGAACTTTCGGTGAACCCT
As to B6, in the data set with RXRA DBD;RARA DBD, the binding result was “binds”.

B7: HsRXRA DBD (130–212) (domain or fragment, human, UniProt P19793 130-212, looked up)
chain: FTKHICAICGDRSSGKHYGVYSCEGCKGFFKRTVRKDLTYTCRDNKDCLIDKRQRNRCQYCRYQKCLAMGMKREAVQEERQRG
Take B7: the binding result with HsRARA DBD (82–167) is given as “binds”.

B8: Hoxb13 DR0 (crystal) (dsDNA)
DNA 1: GAAGGTCAAGGCCAAG
DNA 2: CTTGGCCTTGACCTTC
As for B8, the binding result with RXRA DBD was “binds”.
